This experiment addresses T1, rFN12-14 (recombinant fibronectin type III repeats 12 to 14).
T1 construct: fibronectin, type III repeats 12 to 14; Held by its His tag on Immobilizer Nickel-Chelate plates in the adherence assays; immobilised on a C1 sensor chip in SPR
Kind of experiment: SPR; Biacore T200, C1 sensor chip; rFN12-14 immobilised (~870 RU); rF-, rFG-repeat or multiple repeats in HBS-EP injected at 40 μl/min; double referencing. The following applies: both partners purified. (In general: Surface plasmon resonance follows binding to a sensor surface in real time, without labels.)

B1: r5FG-repeats (recombinant Embp fragment, aa 6777 to 7406) (domain or fragment)
chain: ADQKLQDAKTDAKQQITNFTGLTEPQKQALENIINQQTSRANVAKQLSHAKFLNGKMEELKVAVAKASLVRQNSNYINEDVSEKEAYEQAIAKGQEIINSENNPTISSTDINRTIQEINDAEQNLHGDNKLRQAQEIAKNEIQNLDGLNSAQITKLIQDIGRTTTKPAVTQKLEEAKAINQAMQQLKQSIADKDATLNSSNYLNEDSEKKLAYDNAVSQAEQLINQLNDPTMDISNIQAITQKVIQAKDSLHGANKLAQNQADSNLIINQSTNLNDKQKQALNDLINHAQTKQQVAEIIAQANKLNNEMGTLKTLVEEQSNVHQQSKYINEDPQVQNIYNDSIQKGREILNGTTDDVLNNNKIADAIQNIHLTKNDLHGDQKLQKAQQDATNELNYLTNLNNSQRQSEHDEINSAPSRTEVSNDLNHAKALNEAMRQLENEVALENSVKKLSDFINEDEAAQNEYSNALQKAKDIINGVPSSTLDKATIEDALLELQNARESLHGEQKLQEAKNQAVAEIDNLQALNPGQVLAEKTLVNQASTKPEVQEALQKAKELNEAMKALKTEINKKEQIKADSRYVNADSGLQANYNSALNYGSQIIATTQPPELNKDVINRATQTIKTAENNLN
As to B1, the Kd – broadly, the constant that tells how readily two partners part at equilibrium – was 10 µM.

Source of the values: article PMC7587433, “A Giant Extracellular Matrix Binding Protein of Staphylococcus epidermidis Binds Surface-Immobilized Fibronectin via a Novel Mechanism” (mBio, 2020).
